Reference: PMC7613515, “Reading and erasing of the phosphonium analogue of trimethyllysine by epigenetic proteins” (Communications Chemistry, 2022)
pKd: −log10 of the molar value. Where two headings read alike, the source gives them in different places. One block for each molecule: values may come before it. Square brackets hold non-standard residues; d marks the D form. Ends that are not written are not given here. Lys(Me3) = C[N+](C)(C)CCCC[C@H](N)C(=O)O

Assays:
TAF3PHD (R857–K924) [1] = biological target: T1, TAF3PHD (R857–K924) (Mus musculus, UniProt Q5HZG4); assay: ITC, association of histone H3 peptides with TAF3PHD; type: binding, human; details: 25 °C, H3 1-10 peptide (350–600 µM) into reader (25–40 µM), Tris (50 mM), pH 7.5, from 3 to 5 experiments
T1 construct: TAF3PHD (R857–K924); made in house; host or cells: E. coli
T1 sequence (Q5HZG4 857-924 limits assumed): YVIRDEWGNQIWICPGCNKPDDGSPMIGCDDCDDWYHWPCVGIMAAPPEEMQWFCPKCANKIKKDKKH
Text: (§1) We investigated the thermodynamics of association of the H3KP4me3 peptide with five representative human reader domains containing either a PHD zinc finger or TTD, i.e. KDM5APHD3 (JARID1A-PHD3, residues M1489–V1641)[10], TAF3PHD (R857–K924)[22], BPTFPHD (L2583–N2751)[23], SGF29TTD (R115–K293)[24] and KDM4ATTD (JMJD2A, Q897-P1011)[25], selected on the basis of their preference for binding Ν^ε-trimethyllysine over other (non)methylation marks (Kme0 < Kme1 < Kme2 < Kme3), and their domain and aromatic cage diversity. The recombinant readers were produced in E. coli following reported procedures. Isothermal titration calorimetric (ITC) analyses were used to determine the dissociation constant (Kd), the Gibbs free energy of binding (ΔG°), the enthalpy of binding (ΔH°), and the entropy of binding (ΔS°). […] (Table 1, Fig. 2, Supplementary Fig. 1).
(§2) The following purified reader domains: TAF3PHD (R857-K924), KDM5APHD3 (JARID1A, M1489-V1641), BPTFPHD (L2583-N2751), KDM4ATTD (JMJD2A, Q897-P1011) and SGF29TTD (R115-K293) were prepared as reported[10],[22]–[26]. The histone lysine demethylase were produced and purified to high purity via reported procedures KDM3A (JMJD1A, T515-S1317)[41], KDM4AJmjC[39] (JMJD2A, M1-L359), KDM4EJmjC (JMJD2E, M1–Q337)[34] and KDM7B[40] (PHF8, M37-N483 [NP_001171]). KDM5DJmjC was produced using an N-terminal hexa-His tagged KDM4D (KDM4DM1-L358) DNA construct, transformed into BL21(DE3) competent cells for recombinant protein production. Colonies were used to inoculate of LB media (50 mL) containing kanamycin (50 µg·mL^−1) and chloramphenicol (34 µg·mL^−1), which was placed in a 37 °C shaker overnight. The starter culture (10 mL) was used to inoculate TB media (6 × 1 L) containing kanamycin (50 µg·mL^−1) in 2 L baffled shaker flasks. After reaching an of OD600 of ~0.8, the temperature was reduced to 18 °C; at OD600 ~0.9 the cells were induced by the IPTG (0.5 mM) addition. After shaking overnight, the culture was centrifuged (5000 rpm, 10 mins), the media was decanted, and the cell pellet was suspended in Lysis Buffer [HEPES (50 mM), NaCl (500 mM), imidazole (20 mM), glycerol (5%) and TCEP (0.5 mM) in water (pH 7.4)]. The suspension was lysed by passaging through a high-pressure cell breaker (Avestin – EmulsiFlex-C5) for three rounds. The lysate was cleared by centrifugation (60 minutes, 36,000 × g, 4 °C), then loaded onto a Ni NTA gravity column. […]
(§3) ITC studies followed a reported procedure. […] Histone peptide titrations were performed with the same reader batches. Solutions of the reader in buffer (25–40 µM) and of the histone H3 peptide (350–600 µM) in buffer were prepared. […] Heats of dilution for histone peptides determined in control experiments were subtracted from the titration binding data. […]

[2] = biological target: T2, KDM4ATTD (JMJD2A, Q897-P1011) (Homo sapiens, UniProt O75164); assay: ITC, association of histone H3 peptides with KDM4ATTD; type: binding; details: 25 °C, H3 1-10 peptide (350–600 µM) into reader (25–40 µM), Tris (50 mM), pH 7.5, from 3 to 5 experiments
T2 construct: KDM4ATTD (JMJD2A, Q897-P1011); made in house; host or cells: E. coli
T2 sequence (O75164 897-1011): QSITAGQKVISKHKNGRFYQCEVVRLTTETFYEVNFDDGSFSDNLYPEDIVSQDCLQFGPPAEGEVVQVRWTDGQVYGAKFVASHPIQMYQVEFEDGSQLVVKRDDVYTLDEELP
Text: as §1
(§4) The following purified reader domains: TAF3PHD (R857-K924), KDM5APHD3 (JARID1A, M1489-V1641), BPTFPHD (L2583-N2751), KDM4ATTD (JMJD2A, Q897-P1011) and SGF29TTD (R115-K293) were prepared as reported[10],[22]–[26]. The histone lysine demethylase were produced and purified to high purity via reported procedures KDM3A (JMJD1A, T515-S1317)[41], KDM4AJmjC[39] (JMJD2A, M1-L359), KDM4EJmjC (JMJD2E, M1–Q337)[34] and KDM7B[40] (PHF8, M37-N483 [NP_001171]). KDM5DJmjC was produced using an N-terminal hexa-His tagged KDM4D (KDM4DM1-L358) DNA construct, transformed into BL21(DE3) competent cells for recombinant protein production. Colonies were used to inoculate of LB media (50 mL) containing kanamycin (50 µg·mL^−1) and chloramphenicol (34 µg·mL^−1), which was placed in a 37 °C shaker overnight. The starter culture (10 mL) was used to inoculate TB media (6 × 1 L) containing kanamycin (50 µg·mL^−1) in 2 L baffled shaker flasks. After reaching an of OD600 of ~0.8, the temperature was reduced to 18 °C; at OD600 ~0.9 the cells were induced by the IPTG (0.5 mM) addition. After shaking overnight, the culture was centrifuged (5000 rpm, 10 mins), the media was decanted, and the cell pellet was suspended in Lysis Buffer [HEPES (50 mM), NaCl (500 mM), imidazole (20 mM), glycerol (5%) and TCEP (0.5 mM) in water (pH 7.4)]. The suspension was lysed by passaging through a high-pressure cell breaker (Avestin – EmulsiFlex-C5) for three rounds. The lysate was cleared by centrifugation (60 minutes, 36,000 × g, 4 °C), then loaded onto a Ni NTA gravity column. After extensive rinsing of the Ni-NTA gravity column with lysis buffer, the His-tagged protein was eluted in lysis buffer containing 300 mM imidazole. The eluted protein was concentrated and subjected to gel filtration chromatography using an AKTA Xpress system, an S200 16/600 gel filtration column, and GF buffer [HEPES (50 mM), NaCl (150 mM), glycerol (5%) and TCEP (0.5 mM) in water (pH 7.4)]. The protein identity was verified by LC-MS (ESI-TOF) observing a mass of 43759.7 Da, in accord with the predicted mass of 43751.6 Da.
ITC studies followed a reported procedure. The buffer used corresponded to that used in the final protein purification step. Briefly, TAF3PHD and KDM4ATTD: [Tris (50 mM) in water (pH 7.5)]; KDM5APHD3 and BTPFPHD: [Tris (50 mM), NaCl (20 mM) in water (pH 7.5)]; [Tris (25 mM), NaCl (50 mM), 1,4-dithiothreitol (1.0 mM) in water (pH 7.5)]. Experiments were conducted using ITC200 automated (GE Healthcare Life Sciences, USA) instrument at 25 °C. Histone peptide titrations were performed with the same reader batches. Solutions of the reader in buffer (25–40 µM) and of the histone H3 peptide (350–600 µM) in buffer were prepared. The prepared solutions were plated into a 96-well plate and inserted into the instrument for analysis. Experiments were performed according to manufacturer’s default settings: Plate pre-rinse syringe clean. A total of 19 injections were performed; each experiment was repeated 3–5 times. Heats of dilution for histone peptides determined in control experiments were subtracted from the titration binding data. […]

[3] = biological target: T3, KDM5APHD3 (JARID1A-PHD3, residues M1489–V1641) (Homo sapiens, UniProt P29375); assay: ITC, association of histone H3 peptides with KDM5APHD3; type: binding; details: 25 °C, H3 1-10 peptide (350–600 µM) into reader (25–40 µM), Tris (50 mM), NaCl (20 mM), pH 7.5, from 3 to 5 experiments
T3 construct: KDM5APHD3 (JARID1A-PHD3, residues M1489–V1641); made in house; host or cells: E. coli
T3 sequence (P29375 1489-1641): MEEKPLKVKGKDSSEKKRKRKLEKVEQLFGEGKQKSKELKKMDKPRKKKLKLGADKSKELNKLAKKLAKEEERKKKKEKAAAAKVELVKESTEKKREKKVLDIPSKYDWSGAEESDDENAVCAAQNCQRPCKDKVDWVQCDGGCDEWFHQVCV
Text: as §1, §2, §3

SGF29TTD (R115–K293) [4] = biological target: T4, SGF29TTD (R115–K293) (Homo sapiens, UniProt Q96ES7); assay: ITC, association of histone H3 peptides with SGF29TTD; type: binding; details: 25 °C, H3 1-10 peptide (350–600 µM) into reader (25–40 µM), pH 7.5, from 3 to 5 experiments
T4 construct: SGF29TTD (R115–K293); made in house; host or cells: E. coli
T4 sequence (Q96ES7 115-293): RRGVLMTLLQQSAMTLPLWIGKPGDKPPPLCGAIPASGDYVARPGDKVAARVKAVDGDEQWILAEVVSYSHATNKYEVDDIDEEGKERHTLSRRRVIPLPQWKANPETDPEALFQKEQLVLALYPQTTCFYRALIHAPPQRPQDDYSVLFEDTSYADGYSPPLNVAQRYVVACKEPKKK
Text: as §1, §4
as §3, with “procedure. The buffer used corresponded to that used in the final protein purification step.” for “procedure.”

[5] = cited from earlier work
Text: Some JmjC KDMs can also catalyse N-methyl arginine demethylation and with appropriately sized N^ε-substitutions some can catalyse forma ...

KDM4E = details: reported, shorter H3_7-14K9me3 substrate; cited from earlier work
Text: Reactions were monitored using MALDI-TOF mass spectrometry (Fig. 5b–d). […] Some JmjC KDMs can also catalyse N-methyl arginine demethylation and with appropriately sized N^ε-substitutions some can catalyse forma ...

BPTFPHD (L2583–N2751) = biological target: T5, BPTFPHD (L2583–N2751) (Homo sapiens, UniProt Q12830); details: reported, ITC, H3 1-10, cited from earlier work
T5 construct: BPTFPHD (L2583–N2751); made in house; host or cells: E. coli

[6] = biological target: T3, KDM5APHD3 (JARID1A-PHD3, residues M1489–V1641); details: reported, ITC, H3 1-10, cited from earlier work
Text: page 30: Supplementary Table 5 Overview of reported ITC binding values of chromatin binding modules with H3 peptides (K d in µM) with various lysine modification. […] N.D. not determined; N.M: not measured. Modification KDM5A PHD3 TAF3PHD BPTFPHD SGF29TT ...

[7] = biological target: T2, KDM4ATTD (JMJD2A, Q897-P1011); details: reported, ITC, H3 1-10, cited from earlier work
Text: (§5) N.D. not determined; N.M: not measured. Modification KDM5A PHD3 TAF3PHD BPTFPHD SGF29TT ...

SGF29TTD (R115–K293) [8] = biological target: T4, SGF29TTD (R115–K293); details: reported, ITC, H3 1-10, cited from earlier work
Text: as §5

TAF3PHD (R857–K924) [9] = biological target: T1, TAF3PHD (R857–K924); details: reported, ITC, H3 1-10, cited from earlier work
Text: as §5

pKd (TAF3PHD (R857–K924) [1]): 6.96
pKd [2]: 5.46
pKd [3]: 6.28
pKd (SGF29TTD (R115–K293) [4]): 5.49
Molecule: C[C@H](N)C(=O)N[C@@H](CCCNC(=N)N)C(=O)N[C@H](C(=O)N[C@@H](CCCC[N+](C)(C)C)C(=O)N[C@@H](CCC(N)=O)C(=O)N[C@H](C(=O)N[C@@H](C)C(=O)N[C@@H](CCCNC(=N)N)C(=O)N[C@@H](CCCCN)C(=O)N[C@@H](CO)C(N)=O)[C@@H](C)O)[C@@H](C)O [H3K4me3, reference compound]

Molecule: C[N+](C)(C)C [^+Nme4, reference compound]
volume [5]: 105 Å^3

Molecule: C[P+](C)(C)C.[I-] [^+Pme4, reference compound]
volume [5]: 115 Å^3

Molecule: H3_7-14K9me3: shorter H3_7-14K9me3 substrate (AR[Lys(Me3)]STGGK; UniProt P68431 8-15, looked up, fragment)
Km (KDM4E): 21.3 µM
kcat (KDM4E): 0.0767 s⁻¹

Molecule: K4Cme3: H3 1-10 peptide with K4Cme3 modification, Hintzen et al.
pKd (BPTFPHD (L2583–N2751); ref Hintzen et al. (SI ref 11)): 5.42

Molecule: K4Cme3: H3 1-10 peptide with K4Cme3 modification, Hintzen et al. (ARTCQTARKS; Cys4 S-alkylated with 2-(trimethylammonio)ethyl = trimethylthialysine, a cysteine-derived trimethyllysine analogue (identity inferred from the cited Hintzen et al. work))
pKd ([6]; ref Hintzen et al. (SI ref 11)): 6.82
pKd ([7]; ref Hintzen et al. (SI ref 11)): 5.51
pKd (SGF29TTD (R115–K293) [8]; ref Hintzen et al. (SI ref 11)): 5.21
pKd (TAF3PHD (R857–K924) [9]; ref Hintzen et al. (SI ref 11)): 7.38

Molecule: K4G: K4me3 in H3K4me3 substituted for glycine (ARTGQTARKS)
pKd ([6]; ref Kamps et al. (SI ref 9)): 4.06
pKd (TAF3PHD (R857–K924) [9]; ref Kamps et al. (SI ref 9)): 4.44

Molecule: L-K4me3: H3 1-10 peptide with L-K4me3 modification, Belle et al.
pKd ([6]; ref Belle et al. (SI ref 8)): 6.96
pKd (BPTFPHD (L2583–N2751); ref Belle et al. (SI ref 8)): 6.36
pKd ([7]; ref Belle et al. (SI ref 8)): 5.96
pKd (SGF29TTD (R115–K293) [8]; ref Belle et al. (SI ref 8)): 5.77
pKd (TAF3PHD (R857–K924) [9]; ref Belle et al. (SI ref 8)): 7.09
